Reference: FireProtDB

Conditions: Bombyx mori, whole UniProt chain shown; for Tm / unfolding enthalpy (calorimetric) / unfolding enthalpy (van 't Hoff): Thermal, DSC
[1] = pH 3.5, sodium acetate buffer 50 mM
[2] = pH 4, sodium acetate buffer 50 mM
[3] = pH 4.5, sodium acetate buffer 50 mM
[4] = pH 5, sodium acetate buffer 50 mM
[5] = pH 8, 25 °C, GdnHCl, CD, Tris-HCl 50 mM

B1: Lysozyme wild type, P48816 (protein)
chain: MQKLIIFALVVLCVGSEAKTFTRCGLVHELRKHGFEENLMRNWVCLVEHESSRDTSKTNTNRNGSKDYGLFQINDRYWCSKGASPGKDCNVKCSDLLTDDITKAAKCAKKIYKRHRFDAWYGWKNHCQGSLPDISSC
pH 3, glycine-HCl 50 mM
  Tm: 45.2 °C
  unfolding enthalpy (calorimetric): 77.6 kcal/mol
  unfolding enthalpy (van 't Hoff): 80.9 kcal/mol
pH 3.25, glycine-HCl 50 mM
  Tm: 51 °C
  unfolding enthalpy (calorimetric): 81.5 kcal/mol
  unfolding enthalpy (van 't Hoff): 86.7 kcal/mol
[1]
  Tm: 56 °C
  unfolding enthalpy (calorimetric): 88.5 kcal/mol
  unfolding enthalpy (van 't Hoff): 91.4 kcal/mol
[2]
  Tm: 59.3 °C
  unfolding enthalpy (calorimetric): 91.9 kcal/mol
  unfolding enthalpy (van 't Hoff): 92.4 kcal/mol
[3]
  Tm: 62.8 °C
  unfolding enthalpy (calorimetric): 94.1 kcal/mol
  unfolding enthalpy (van 't Hoff): 93.8 kcal/mol
[4]
  Tm: 65.3 °C
  unfolding enthalpy (calorimetric): 99.7 kcal/mol
  unfolding enthalpy (van 't Hoff): 95.1 kcal/mol
[5]
  denaturant m value: 3.4 kcal/mol/M
  denaturant midpoint (higher = more stable): 2.39 M
  unfolding free energy: 8.1 kcal/mol
